{
  "source": "paper PMC10661027",
  "about": "“Tuning Plant Promoters Using a Simple Split Luciferase Method to Assess Transcription Factor-DNA Interactions”",
  "binders": {"B1": {"name": "CaMV35s as1 (dsDNA)", "DNA 1": "ATGAAGACGCTGGGTTTACATGGGAATGGCTGACGTAAGGGATGACGCACATGCTTCTGTTCTAACAGGCTAGGATATAA", "DNA 2": "TTATATCCTAGCCTGTTAGAACAGAAGCATGTGCGTCATCCCTTACGTCAGCCATTCCCATGTAAACCCAGCGTCTTCAT"}, "B2": {"name": "CaMV35s as1 80 bp Cy5 EMSA probe (dsDNA)", "DNA 1": "B1 DNA 1", "DNA 2": "B1 DNA 2"}, "B3": {"name": "TFBS_02 (dsDNA)", "DNA 1": "TAGCGAAGTACGATCCCGGACCGCTACATTCCAAATAGTCTGACGTAAGCAATGACAAAACTCACCTACATGGCCATCACGCAGTA", "DNA 2": "TACTGCGTGATGGCCATGTAGGTGAGTTTTGTCATTGCTTACGTCAGACTATTTGGAATGTAGCGGTCCGGGATCGTACTTCGCTA"}},
  "key": {"[1]": {"target": "T1, AtTGA1:HiBiT (Arabidopsis thaliana, UniProt Q39237 1-368)", "T1 sequence": "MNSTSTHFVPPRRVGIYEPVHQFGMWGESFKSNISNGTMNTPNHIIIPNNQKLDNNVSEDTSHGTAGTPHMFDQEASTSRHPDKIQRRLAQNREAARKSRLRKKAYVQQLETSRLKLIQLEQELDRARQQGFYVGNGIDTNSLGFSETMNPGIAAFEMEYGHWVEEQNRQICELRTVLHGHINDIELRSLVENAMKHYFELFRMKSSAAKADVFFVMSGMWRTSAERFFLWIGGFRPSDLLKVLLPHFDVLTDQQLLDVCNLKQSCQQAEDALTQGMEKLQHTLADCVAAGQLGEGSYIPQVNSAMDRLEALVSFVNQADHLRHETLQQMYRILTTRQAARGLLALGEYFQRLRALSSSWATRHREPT", "experiment": "qTFD (HiBiT luminescence microplate, relative to rnd); qTFD: 25 mM Tris-HCl pH 8.0, 100 mM KCl, 2 mM DTT, 1 mM EDTA, 0.1% BSA, 500 ng poly(dI-dC), 5% glycerol, 0.05% IGEPAL CA630, 1.5-50 nM protein, 1-3 h, room temperature; EMSA as in cited earlier work", "settings": "protein: recombinant; tags: C-terminal HiBiT (VSGWRLFKKIS); pH9GW vector, Ni-NTA purified; chain copies: 2; label: none; blunt"}, "[2]": {"target": "T1, AtTGA1:HiBiT", "experiment": "EMSA; 1.5-15 nM protein; reduced by unlabelled competitor; qTFD: 25 mM Tris-HCl pH 8.0, 100 mM KCl, 2 mM DTT, 1 mM EDTA, 0.1% BSA, 500 ng poly(dI-dC), 5% glycerol, 0.05% IGEPAL CA630, 1.5-50 nM protein, 1-3 h, room temperature; EMSA as in cited earlier work", "settings": "protein: recombinant; tags: C-terminal HiBiT (VSGWRLFKKIS); pH9GW vector, Ni-NTA purified; chain copies: 2; label: Cy5 (primers); blunt"}, "[3]": {"target": "T1, AtTGA1:HiBiT", "experiment": "qTFD (HiBiT luminescence microplate, relative to rnd); strong rQ; qTFD: 25 mM Tris-HCl pH 8.0, 100 mM KCl, 2 mM DTT, 1 mM EDTA, 0.1% BSA, 500 ng poly(dI-dC), 5% glycerol, 0.05% IGEPAL CA630, 1.5-50 nM protein, 1-3 h, room temperature; EMSA as in cited earlier work", "settings": "protein: recombinant; tags: C-terminal HiBiT (VSGWRLFKKIS); pH9GW vector, Ni-NTA purified; chain copies: 2; label: none; blunt"}},
  "data": [
    {"binder": "B1", "values": [
      {"measurement": "binding result", "setting": "[1]", "value": "binds"}
    ]},
    {"binder": "B2", "values": [
      {"measurement": "binding result", "setting": "[2]", "value": "binds"}
    ]},
    {"binder": "B3", "values": [
      {"measurement": "binding result", "setting": "[3]", "value": "binds"}
    ]}
  ]
}
